The values that follow come from a protein production outcome set (Wang et al. 2014).

The nature of this data set: label from the status in PepcDB records.

For the sequence “QRALVLTAARGRGKSAATGLSIAGLIEKLRERKEKSIRIIVTAPSIASASQVMSFAKLGLEALGEELSVKVSDTGHIKSLRGDYFKLEYVPPDAAIEDEGELLIIDEAAALGINYIDLALRAWKKVALVTTVHGYEGSNKAFLRYLRRLIESKRIRVKWVNMEQPLRYAKGDPIEKWLYDALLLD”, the protein production entry is “failed”.
On to “QRSYERDFPHHDRICIVKTHGTRQSQEGDKPEELDFSQVSGGVAPAIQEEIPGVELATRTTLYGTSKMILEDNKTYETKTLLAEPAFLDMFGVELIAGVRDSALRDNMTCLISESLARKMGGDVLGKRLRPAESKSDRAITIGGVFEDLPHNSSIQADMLLPITWMPAESLNNWIGNDRYIAYVRLRPGVSPESLDEALLEMQKRHQDMEVFRKAGVELHYSLTPFNRLRLEDPTLVNMLRIQQ”, for which the protein production entry is “not failed”.
To “QYHDHHKDQYQMDAAHVPNKTPLYITDILSLRGKKDSGPARDSIRDSIDRIEFTDFQLHELTGRWLSENMPEGFKSDRFRFLARTITASEEAPVEGSDGEIRIKPNLYILVWEPSFYEELLTRDYFFLFPPEILKQHTLVFQLYSFFRSRMVRRHTDCMLLSELNQKLARNIEWRRFSMDLIRELKRLSDGKGTDDLFVVNLWGYHLTIETMIENDKVMDYQIDIKCDVEEVLRYSRARTTNAGKRNMAPTLPNPLRNEMVTRQQLEALSGIIDGEFEPIQRKTPSPRGNLGRRVKQRKHLVEINADEITITLSKYTSPEALERSITALSAMTGHSYASIKEECSEYIEKLDWLRVGDEPIPYETLSKTVELFNTQNEVKHLTIERLIAGLAVRRKVCRQVFDGHMDEMVFRALDEMAI” belongs “failed”; to “RAGHIEVAEVEGMSFPVKLDTGADVSSINAKDIKLFQKDGKDMVSFTYENDLGMQKAFTREVVDVMKITAKKGEKANVRPVVEMHVKLGELEKKIRVNLQDRGRFHYSMILGKNFLKHGALVASETNYIVTKK”, “not failed”; to “RDITARVQAEENKRRLAEVVEANPDPVLFIQPGGAVTYLNPAARRTLGLGDGQAMPPLAAILSAAVLDSLQREGWDRAEHSGRWNIEARLQPPAGGASVPVSLMLLAHRAASGERFYSLVAHD”, “failed”.
“RDLDAVLQAIVQRARSLLGTDVAYLTLHDEAEGDTYMRVTEGSVAARFQQLRLGMGEGLGGLVAQTARPYVTPDYFNDERFQHTRVIDGGVRDEGLVAILGVPLMIGPQVIGVLFAADRRARVFEREQIALLGSFAALAAAAIDTANLLTETRSALDRLARANEIIRDRSGVIERASDVHDRLAELVLRGG”: the protein production entry is “failed”.
“RDSLFNDPNAPVLGNPEGDVTVVEFFDYNCPYCRRAMAEVQGLVDADPNVRLVYREWPILGEGSDFAARAALAARQQGKYEAFHWALMGMSGKANETGVLRIAREVGLDTEQLQRDMEAPEVTAHIAQSMALAQKLGFNGTPSFVVEDALVPGFVEQSQLQDAVDRARKAA”: the protein production entry is on record as “not failed”.
As for “RDSLFNDPNAPVLGNPEGDVTVVEFFDYNCPYCRRAMAEVQGLVDADPNVRLVYREWPILGEGSDFAARAALAARQQGKYEAFHWALMGMSGKANETGVLRIAREVGLDTEQLQRDMEAPEVTAHIAQSMALAQKLGFNGTPSFVVEDALVPGFVEQSQLQDAVDRARKAAAK”, the protein production result is recorded as “not failed”.
As to “REEDPHEGKIWFHGKISKQEAYNLLMTVGQVCSFLVRPSDNTPGDYSLYFRTNENIQRFKICPTPNNQFMMGGRYYNSIGDIIDHYRKEQIVEGYYLKEPVPMQDQ”, the protein production result was “not failed”.
Take “REIADNTYIVLGTMTLNDFNEYFETDLESDNVDTIAGFYLTGVGTIPSQEEKEHFEVESNGKHLELINDKVKDGRVTKLKILVSEVEEKEDEKD”: the protein production entry was “not failed”.
As to “REKLFLQPVKPTDSMRMEVSSPKLAIGVRGKREVSEADCYRHHILLKLLFAMMFGWTSDRFQKCYESGKIDASLSLEVEITSRFHFVMLTMDTKEPVALSHQFRKAIRNFTKDLDITEEHLDIIKREMFGEFFSSMNSLEFIATQYDAFENGEIIFDLPKILQEITLEDVLDAGHHLIDDGDIVDFTIFP”, the protein production entry is reported as “failed”.
For “RGLRRGTLRIGSFGPTSSMRLLPALLARYRQQYPGIEVHIDEGPDEQVLQWLLERRVDIAFAVLPDPRFVCCPLVEDQMVAVLPAGHRLADRPRVTLAELCGEPFALSGAGSAELVMRLFQAARLQPNIRYRCGQLLSTLDTVARG”, the protein production entry is on record as “failed”.
Next, “RGRYRQYNSEILEEAISVVMSGKMSVSKAQSIYGIPHSTLEYKVKERLGTLKNPPKKKMKLMR”: “not failed”.
To “RKKEDKYDFRALGLAIKEARKKQGLTREQVGAMIEIDPRYLTNIENKGQHPSLQVLYDLVSLLNVSVDEFFLPASSQVKSTKRRQLENKIDNF” belongs “failed”; to “RLEDLGAASAARLLDAAEERLGRPCGRMERYGRVEREVVAAAEGAELLIVARDGDRARLGPHSLGPASRFVVDHAPCPVLLVWPAPAPGLGTIPPPPHP”, “not failed”; to “RNGGTIGGADIIAKLLEDKLGLQLNQALLGIDLFVMIVSLTYISLPQMMYALIASFMYGQIVRLVQQGGYSARGIFIVSEQAEKIARFIMDELGRGVTYLTGEGAYSGRRKKVIYVALGRRDIRELKAFLTQVDPNAFITYFDVNEVNSPEFLTIKSKYHKKRK”, “failed”.
To “RPAVFPRMGVLPARVALLGQGQHWGVDFCLNVFRANFAEDREIQSEDVVRDLLRAQDLDADALIAQARQESTKEALRKQVDRARALGIFGAPTFMVDGEMFWGNDRLEDALA” belongs “failed”; to “RPDVSRQSQFHTMALVNLSAKMIESCYFLRHFEQQWLLRFHLQAESVGLFSEGLLAFDGDGRICAANQSALNLLGTVRGGVLGKPLECFFACSHDEMFSRATPGG”, “failed”.
Consider “RQAEEGPPPLPRQISDRSVGHYCSMNLTEHNGPKAQIFLNGKPDQPVWFSTIKQMFGYTKLPEEPKGIRVIYVTDMGNVTDWTNPNADTEWMDAKKAFYVIDSGFIGGMGAEDALPFGNKEQAEKFAKDKGGKVVGFDDMPDTYIFK”, for which the protein production entry is recorded as “not failed”.
To “RQKFINDVLHLLYRPLDWNQSIAKVMELLGRFTQADRSYIFENSPDDSYATNTFEWCQEGIAPQIHLLQHFEYSLMPSWKPLIVEKKMICASDISTLPLDLSETLAPQGIKSILAVSIFAQGRLYGYLGLDSCRKKREWSEEEIELLRSISTIIAGAIERRGWERSEKEQ” belongs “failed”; to “RRLVTYVLVHGTHSAGAFWTPIARELGLRGHRVVMVDQPRHGAEAFVAESYQRQDLAAMAVEPSPLKGLGLDDYEARVAGIVRRAARNGPVVLVGHSLGGVSVSRVGEAVPHLLHHICYMAAFCPSRVLPTADACTAAPENANAVSPVELTVGDPDRLGVLRLNFRTGVSGELALLKEMICADYPDADFRRILAGMQTDEPVAAYAGRAVGRAGRWGRIPRTYLRFGRDRTIATALQDRVIAEADAATPGNGFRVHDFPEASHVGPLDPTPVADVLDRLA”, “failed”.
“RSAHLRVRQLPHAPEHPVATLSTVERRAINLTWTKPFDGNSPLIRYILEMSENNAPWTVLLASVDPKATSVTVKGLVPARSYQFRLCAVNDVGKGQFSKDTERVSLPE”: the protein production result is “not failed”.
To “RSRPSPYACHVEAWAADGRQRVRMANPGHATLVLHVYDCLRLAQGPRRYTIEPGRQWEDSWPDAGADLACDLWILGPDGFHRHIRR” belongs “failed”; to “RSTIGAGQKVNVEFVSANPTGPMHVGHVRGAVVGDALARLLAYAGWNVTREYYINDGGAQVDVLARSAFERYREAHGLEPEIREGLYPGDYLIPVGEALKAKYGDSLLDKGEQHWLTEVREFATEMMMQMIREDLAALGVEMDVYSSEKALYGTGKIEAALDRLKEMDLIYEGVLEPPKGKTPEDWEPREQTLFRSTAHGDDVDRPVKKSDGSWTYFAPDIAYHYDKVTRGFDQLIDIFGADHGGYVKRMKAAVAALSAGRVPLDIKLIQLVKLWKNGEPFKMSKRAGTYVTLRDVVEQVGTDVTRFVMLTRKNDATLDFDFDKVLEQSKENPVFYVQYANARINSVLRKAREQGMDVSDA”, “failed”.
